Laboratory results from FireProtDB (doi:10.1021/bi001900v).
“And” between values parts separate entries of the source, which are not always exact repeats. Equal entries are not always repeated.

Conditions: Dickeya chrysanthemi, reversible: yes, whole UniProt chain shown; for Tm / unfolding enthalpy (calorimetric) / unfolding enthalpy (van 't Hoff): Thermal, DSC; for denaturant m value / denaturant midpoint (higher = more stable) / unfolding free energy: 25 °C, GdnHCl
[1] = pH 5, CD, Sodium phosphate 0.1 M, sodium chloride 150 mM
[2] = pH 5, CD, Sodium phosphate buffer, NaCl
[3] = pH 5, Fluorescence, Sodium phosphate 0.1 M, sodium chloride 150 mM
[4] = pH 5, fluorescence, Sodium phosphate buffer, NaCl
[5] = pH 7, CD, Sodium phosphate 0.1 M, sodium chloride 150 mM
[6] = pH 7, CD, Sodium phosphate buffer, NaCl
[7] = pH 7, Fluorescence, Sodium phosphate 0.1 M, sodium chloride 150 mM

B1: Pectate lyase C wild type, P11073 (protein)
chain: MKSLITPITAGLLLALSQPLLAATDTGGYAATAGGNVTGAVSKTATSMQDIVNIIDAARLDANGKKVKGGAYPLVITYTGNEDSLINAAAANICGQWSKDPRGVEIKEFTKGITIIGANGSSANFGIWIKKSSDVVVQNMRIGYLPGGAKDGDMIRVDDSPNVWVDHNELFAANHECDGTPDNDTTFESAVDIKGASNTVTVSYNYIHGVKKVGLDGSSSSDTGRNITYHHNYYNDVNARLPLQRGGLVHAYNNLYTNITGSGLNVRQNGQALIENNWFEKAINPVTSRYDGKNFGTWVLKGNNITKPADFSTYSITWTADTKPYVNADSWTSTGTFPTVAYNYSPVSAQCVKDKLPGYAGVGKNLATLTSTACK
Tm (pH 4): 56.5 °C
unfolding enthalpy (calorimetric) (pH 4): 256 kcal/mol
unfolding enthalpy (van 't Hoff) (pH 4): 174 kcal/mol
denaturant m value [1]: 15.7 kcal/mol/M
denaturant midpoint (higher = more stable) [1]: 0.95 M
unfolding free energy [1]: 14.9 kcal/mol
denaturant m value [2]: 12.5 kcal/mol/M and 15.7 kcal/mol/M
denaturant midpoint (higher = more stable) [2]: 0.97 M
unfolding free energy [2]: 14.9 kcal/mol
denaturant m value [3]: 14.5 kcal/mol/M
denaturant midpoint (higher = more stable) [3]: 0.96 M
unfolding free energy [3]: 14 kcal/mol
denaturant m value [4]: 14.5 kcal/mol/M
denaturant midpoint (higher = more stable) [4]: 0.96 M
unfolding free energy [4]: 14 kcal/mol
Tm (pH 5): 59.8 °C
unfolding enthalpy (calorimetric) (pH 5): 270 kcal/mol
unfolding enthalpy (van 't Hoff) (pH 5): 181 kcal/mol
Tm (pH 6): 56.5 °C
unfolding enthalpy (calorimetric) (pH 6): 255 kcal/mol
unfolding enthalpy (van 't Hoff) (pH 6): 203 kcal/mol
denaturant m value [5]: 12.2 kcal/mol/M and 11.8 kcal/mol/M
denaturant midpoint (higher = more stable) [5]: 0.99 M and 0.98 M
unfolding free energy [5]: 12.1 kcal/mol and 11.6 kcal/mol
denaturant m value [6]: 12.2 kcal/mol/M and 11.8 kcal/mol/M
denaturant midpoint (higher = more stable) [6]: 0.99 M and 0.98 M
unfolding free energy [6]: 12.1 kcal/mol and 11.6 kcal/mol
denaturant m value [7]: 13 kcal/mol/M
denaturant midpoint (higher = more stable) [7]: 1 M
unfolding free energy [7]: 13 kcal/mol
Tm (pH 7): 51.2 °C
unfolding enthalpy (calorimetric) (pH 7): 240 kcal/mol
unfolding enthalpy (van 't Hoff) (pH 7): 219 kcal/mol
Tm (pH 8): 46.5 °C
unfolding enthalpy (calorimetric) (pH 8): 235 kcal/mol
unfolding enthalpy (van 't Hoff) (pH 8): 201 kcal/mol
